IC50 geomean, neutralization of 208-virus panel and virus isolate coverage (neutralization breadth), 208-virus panel data for 2 molecules are collected here from US20220227845A1.

For the assay, the target named is HIV-1 Env of the 208-pseudovirus panel (Table 1). Description: cell-based or functional assay.

B1: PentaNAb2.0 ScFv (10E8v4_S100cF-5X-35O22-5X-N6-5X-PGT121-5X-VRC26.25-His) (scFv)
scFv: SELTQDPAVSVALKQTVTITCRGDSLRSHYASWYQKKPGQAPVLLFYGKNNRPSGIPDRFSGSASGNRASLTITGAQAEDEADYYCSSRDKSGSRLSVFGGGTKLTVLGGGGSGGGGSGGGGSEVRLVESGGGLVKPGGSLRLSCSASGFDFDNAWMTWVRQPPGKGLEWVGRITGPGEGWSVDYAESVKGRFTISRDNTKNTLYLEMNNVRTEDTGYYFCARTGKYYDFWFGYPPGEEYFQDWGQGTLVIVSSGGGGSGGGGSGGGGSGGGGSGGGGSQSVLTQSASVSGSLGQSVTISCTGPNSVCCSHKSISWYQWPPGRAPTLIIYEDNERAPGISPRFSGYKSYWSAYLTISDLRPEDETTYYCCSYTHNSGCVFGTGTKVSVLGGGGSGGGGSGGGGSQGQLVQSGAELKKPGASVKISCKTSGYRFNFYHINWIRQTAGRGPEWMGWISPYSGDKNLAPAFQDRVIMTTDTEVPVTSFTSTGAAYMEIRNLKFDDTGTYFCAKGLLRDGSSTWLPYLWGQGTLLTVSSGGGGSGGGGSGGGGSGGGGSGGGGSYIHVTQSPSSLSVSIGDRVTINCQTSQGVGSDLHWYQHKPGRAPKLLIHHTSSVEDGVPSRFSGSGFHTSFNLTISDLQADDIATYYCQVLQFFGRGSRLHIKGGGGSGGGGSGGGGSRAHLVQSGTAMKKPGASVRVSCQTSGYTFTAHILFWFRQAPGRGLEWVGWIKPQYGAVNFGGGFRDRVTLTRDVYREIAYMDIRGLKPDDTAVYYCARDRSYGDSSWALDAWGQGTTVVVSAGGGGSGGGGSGGGGSGGGGSGGGGSSDISVAPGETARISCGEKSLGSRAVQWYQHRAGQAPSLIIYNNQDRPSGIPERFSGSPDSPFGTTATLTITSVEAGDEADYYCHIWDSRVPTKWVFGGGTTLTVLGGGGSGGGGSGGGGSQMQLQESGPGLVKPSETLSLTCSVSGASISDSYWSWIRRSPGKGLEWIGYVHKSGDTNYSPSLKSRVNLSLDTSKNQVSLSLVAATAADSGKYYCARTLHGRRIYGIVAFNEWFTYFYMDVWGNGTQVTVSSGGGGSGGGGSGGGGSGGGGSGGGGSQSVLTQPPSVSAAPGQKVTISCSGNTSNIGNNFVSWYQQRPGRAPQLLIYETDKRPSGIPDRFSASKSGTSGTLAITGLQTGDEADYYCATWAASLSSARVFGTGTKVIVLVGGGGSGGGGSGGGGSQVQLVESGGGVVQPGTSLRLSCAASQFRFDGYGMHWVRQAPGKGLEWVASISHDGIKKYHAEKVWGRFTISRDNSKNTLYLQMNSLRPEDTALYYCAKDLREDECEEWWSDYYDFGKQLPCAKSRGGLVGIADNWGQGTMVTVSSGSGHHHHHH
The molecule B1 showed an IC50 geomean, neutralization of 208-virus panel of 6 ng/mL and a virus isolate coverage (neutralization breadth), 208-virus panel of 99.6%.

B2: 35O22 (antibody, V domains shown)
VH: QGQLVQSGAELKKPGASVKISCKTSGYRFNFYHINWIRQTAGRGPEWMGWISPYSGDKNLAPAFQDRVIMTTDTEVPVTSFTSTGAAYMEIRNLKFDDTGTYFCAKGLLRDGSSTWLPYLWGQGTLLTVSS
VL: QSVLTQSASVSGSLGQSVTISCTGPNSVCCSHKSISWYQWPPGRAPTLIIYEDNERAPGISPRFSGYKSYWSAYLTISDLRPEDETTYYCCSYTHNSGCVFGTGTKVSVL
B2: the virus isolate coverage (neutralization breadth), 208-virus panel amounted to 45.2%.
